Experimental data reported in the nanobody polyreactivity screen of Harvey et al. (2022).

Test: yeast display, Sf9 membrane polyspecificity reagent, FACS + sequencing; frameworks hold sequencing errors
Procedure, shortened: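 After 36–48 hours of galactose induction, yeast (Saccharomyces cerevisiae BJ5465) displaying a synthetic nanobody library were stained at 4 °C for 1 hour with 10% biotinylated, detergent-solubilized Sf9 membrane reagent. Streptavidin microbeads enriched the stained cells before FACS sorting into low and high (top ~1%) gates on anti-HA and streptavidin fluorescence. Each clone's polyreactivity label reflects its gate of origin.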

| Sequence | polyreactivity (PSR sort gate) |
| --- | --- |
| QVQLVESGGGIVQAGGSLRLSCAASGSIFPDNTMGWYRQAPGKERELVAAITGDGSTYYADSVKGRFTISRDNAKNTVYLERNSLKPEDTAVYYCAAASPSWSYWPRDYWGQGTQVTVSS | low polyreactivity |
| QVQLVESGGGIVQAGGSLRLSCAASGSIFSYYAMGWYRQAPGKERELVAAITSGGATTYYADSVKGRFTISRDNAKNTVYLQMNSLKPEDTAVYYCAAGYYVYYRWWELDYWGQGTQVTVSS | low polyreactivity |
| QVQLVESGGGIVQAGGSLRLSCAASGSISVPYGMGWYRPAPGKERELVAAITGGSTYYADSVKGRFTISRDNAKNTVYLQMNSLIPEDTAVYYCFDVNTDVLSRVYRGWGYYYWGQGTQVTVSS | low polyreactivity |
| QVQLVESGGGIVQAGGSLRLSCAASGSNFVVNAMGWYRQAPGKERELVAAITQSGGSTFYADSVKGRFTISRDNAKNTVYLQMNSLIPEDTAVYYWGQGTQVTVSS | low polyreactivity |
| QVQLVESGGGIVQAGGSLRLSCAASGSTFAANAMGWYRPAPGKERELVAAITSGGGSTYYADSVKGRFTISRDNAKNTVYLQMNSLKPEDTAVYYCNAADWLETQVDLDYWGQGTQVTVSS | low polyreactivity |
| QVQLVESGGGIVQAGGSLRLSCAASGSTFFSYAMGLYRQAPGKERELVAGIDWNGGDTNYADSVKGRFTISRDNAKNTVYLQMNSLKPEETAVYYCATDYSFPGPFRRRERFDYWGQGTQVTVSS | low polyreactivity |
| QVQLVESGGGIVQAGGSLRLSCAASGSTFGFYAMGWYRQAPGKERELVAAISSAARTYYADSVKGRFTISRDNAMNTVYLQMNSMKPEDTAVYYCSAEAYHWTSYIGYGGVYYWGQGTKVTVSS | low polyreactivity |
| QVQLVESGGGIVQAGGSLRLSCAASGSTFGGNAMGWYRQAPGKERELVAAITSGTGTHYADSVKGRFTISRDNAKNTVYLQMNSLKPEATAVYFCAAEVWSWAGIWGYEYWGQGTQVSVSS | low polyreactivity |
| QVQLVESGGGIVQAGGSLRLSCAASGSTFLTNTMGWYRQAPGTESELVAAITLRGGRTYYADSVKGRFTISRDNAKNTVYLQMNSLKPEDTAVYYCNARNYYYPSDRDYWGQGTQVTGSS | low polyreactivity |
| QVQLVESGGGIVQAGGSLRLSCAASGSTFPPNAMGWYRQAPGKERELVAGINGSGGRTYYADSVKGRFTISRDNAKNTVYLQMNSLKPVDTAVYYCATRLRSEYYYNKWYYHWGQGTQVTVSS | high polyreactivity |
| QVQLVESGGGIVQAGGSLRLSCAASGSTFRRYAMGWYRQAPGKERELVASISWSGGSTSYADSVKGRFTISRDNAKNTVYLQMNSLKPEDTAGYYCAAVRYYWGEYYARYAYEYWGQGTQVTVSS | high polyreactivity |
| QVQLVESGGGIVQAGGSLRLSCAASGSTFWFNDMGWYRAAPGKEREFVAAISSSGGSTYYADSVKGRFTISRDNAKNTVYVQMNSLKPEDTAVYYWAVEVVRDYRYADWGQGTQVTVSS | low polyreactivity |
| QVQLVESGGGIVQAGGSLRLSCAASGSTFYLYAMGWYRQAPGKERELVAAISTVGSTNYADSVNGRFTISRDNAKNTVYLQMNSLKPEDTAVYYCNAEYYGVVEYDYWGHGTQVTVSS | low polyreactivity |
| QVQLVESGGGIVQAGGSLRLSCAASGSTFYVYALGWYRQAPGKERELVAAINFNGGGTYYADSVKGRFTISRDNAKNTVYLQMNRLKPEDTAVYYCNAEDDYTYDRSFGGYKYDYWGQGTQVTVSS | low polyreactivity |
| QVQLVESGGGIVQAGGSLRLSCAASGSTLFGDAMGLYRQAPGKERELVAAINRRGSTNYADSVKGRFTISRDNAKNTVYLKMNCLKPEDTAVYYCAAYIYKTYRYYYWGQGTQVTVSS | high polyreactivity |
| QVQLVESGGGIVQAGGSLRLSCAASGYTFTGYSMGWYRQAPGKEREFVAGITWRTGRTYYADSVKGRFTISRDNAKNNVYLQMNSLKREDTAVYFCYKDHQRRYYWSYDYWGQGTQVTVSS | low polyreactivity |
| QVQLVESGGGIVQAGGSLRLSCAASVFTFRANTMGWYRPAPGKERELVAAISPSGGSTYYADSVKGRFTISRDNAKNTVYLQMNSLKPEDTAVYYCNADIEYRPGHGRLGDYDYWGQGTQVTVSS | low polyreactivity |
| QVQLVESGGGIVQAGGSLRLSCPASGFIGVNGMGWYIQAPGKERELVAAISSGGSTNYADSVKGRFTMSRDNAKNTVYLQMNSLKPEDTAVYYCAKDFLLDSFYHTYRYRYDYWGQGTQVTVSS | low polyreactivity |
| QVQLVESGGGIVQAGGSLRLSCSASGFSFSSYAMGWYRQAPGKERELVASITWSGGRTYYADSVKGRFTISRDNAKNTVYLQMNSLKPEDTAVYYCAPGDVNWSYSLLYTVVLFDSWGQGTQVTVSS | high polyreactivity |
| QVQLVESGGGIVQAGGSLRLSWAASGFIFNNYAMGWYRQAPGKERELVAAITGGGSTNYADSVKGRFTISRDNAKNTVYLQMNSLKPEDTAVYYCNAEGVWWSTRYDSWGQGTQVTVSS | low polyreactivity |
| QVQLVESGGGIVQAGGSLRLSWAASGSINYRNARGCYRQAPGKERELVAAISSDGSTNYADSVKGRFTISRDNAKNTVYLQMNRLKPEDTAVYSCASPWTQILDYWGKGTQVTVSS | low polyreactivity |

| Sequence | polyreactivity (PSR sort gate) |
| --- | --- |
| QVQLVESGGGIVQAGGSLRLTCAASGSIFVNNAIGWYIQAPGKERELVADIRRSGGNTYYADSVKGRFTISRDNAKNTVYLQMNSLKPEDTAVYYCNVVRRADSIRAKSRDYWGQGTQVTVSS | high polyreactivity |
| QVQLVESGGGIVQAGGSLRLTCAASGSTFEIYAMGWYRQAPGKERELVAAISSGGSTNYADSVKGRFTISRDNAKNTVYLQMNSLKPDDTAVYDCAAVLYSRLYWYRLDYWGQGTQVTVSS | low polyreactivity |
| QVQLVESGGGIVQAGGSLRLTCAASGYIFYSYAMGWYRHAPGKERELVATISSGGSTYYADSVKGRFTISRDNAKNTVYFQMNSLKPEDTAVYYCATDHDIVYNFNRYDYWGQGTQVTVSS | low polyreactivity |
| QVQLVESGGGIVQAGGSLRVSCAASGRTYLRNAMGWSRQAPGKERELVASITSRGGRTYADSVKGRFTISRDNAKNTVYLQMNSLKPEDTAVYYCDARRQAGLRYDYWGQGTQVTVSS | high polyreactivity |
| QVQLVESGGGIVQSGGSLRLICAASGGIFKYNAMGWYRQAPGKERELVAAINYSGGRTYYADSVKGRFTISRDNAKNTVYLQMNSLKPEDTAVYYCNALTRGHTGQPYTYDYWGQGTQVTVSS | high polyreactivity |
| QVQLVESGGGLAQAGGSLRLSCAASGSTFYSYAMGWYRQAPGKERELVAGITWNDGSTYYADSVKGRFTISRDNAKNTVYLQMNSLKPEDTAVYYCNTDASPYLFDYWGHGTQVTVSS | low polyreactivity |
| QVQLVESGGGLDAAGGSLRLSCAASGSTVIAYAMGWYRQAPGKEWELVAVMTSRGGRTYYADSVKGRFTISRDNAKNTVYLQMNSQKPEDTAVYYCATRSYRYLRSYDYWGQGTQVTVSS | high polyreactivity |
| QVQLVESGGGLDHAGGSLRLSCADSGRIFNYNAMGWYIQAPGKESELVAAISWDGGSTYYADSVKGRFTISRDNAKNTVYLQINSLKPEDSAVYYCAAQYIWSSYRYYYWGQGTQVTVSS | high polyreactivity |
| QVQLVESGGGLDHAGGSLRLSCAPSGRIFSVNAMGWYRQAPGKERELVAAITSGDSTNYADSVKGRFTISRDNAKNTVYLQSNSMKQEDTAVYYCNARGSQELWRRKWYHTEYDSWGQGTQVSVSS | low polyreactivity |
| QVQLVESGGGLDHARGSLRLICPASGRTFAPYAMGWYRQAPGKERELVARITWSGTDTYYADSVKGRFTISRDNAKNTVYLQMNCLKPDDTAVYYCAADARYSRRYYYWGQGTQVTVSS | low polyreactivity |
| QVQLVESGGGLDQAGCSLRLSCAASGRIFPYMGWYRQAPGKDRELVAAINASGGRTYYADSVKGRFTISRDNAKNTVYLQMNSLKPEDTAVYYCNAVWSSDTYTHPQYDYWGQGTQVTVSS | high polyreactivity |
| QVQLVESGGGLDQAGCSLRLSWAASGITSYYNAMGWYRQAPGKERELVAAITSGGSTYYADSVKGRFTISRDNAKNTVYLQMNSLKPEVTAVYYCARRSRYLWRYDYWGQGTQVTVSS | high polyreactivity |
| QVQLVESGGGLDQAGGRLRLSCAASGITFGRNTMGWYRQSPGKERELVAAIDSGGNTYADSVKGRFTISRDNAKNTVYLQMNSLKPEDTAVYYCAVDGGEFSSYGYWGQGTQVTVSS | low polyreactivity |
| QVQLVESGGGLDQAGGSLLLSCAASGSIFNDYAMGWYRQAPGKERELVAAISTSDGSTYYADSVKGRFTISRDNAKNTVYLQMKSLKPEDTAVYYCAVVSDYYYYPPYGYWGQGTQVTVSS | low polyreactivity |
| QVQLVESGGGLDQAGGSLPLRCAATGSIFHDYALGWYSQAPGKERELVAVISTSGGSTYYADSVKGRFTISRDNAKNTVYLQMNSLKPEDTAVYYCNAELSFWALGYDYWGQGTQVTVSS | low polyreactivity |
| QVQLVESGGGLDQAGGSLRLICAASGFTITNNAMGWYRQAPGKEREFVAAISASGGSTYYADSVKGRFTISRDNAKNTVYLQMNSLKPEDTAVYYCAVEPVYIVSEVLFDYWGQGTEVTVSS | low polyreactivity |
| QVQLVESGGGLDQAGGSLRLICAASGFTYPIYAMGWYRQAPGKERELVAAITTRGGRTYYADSVKGRFTISRDNAKNTVYLQMNSLKAEDTAVYYCNALGYAYRLWFGYWGEGTQVTVSS | high polyreactivity |
| QVQLVESGGGLDQAGGSLRLICAASGITIEYYAMAWYRTAPGKERELVAAISSGGGSTYYADSVKGRFTISRDNAKNSVYLQMISLKPEDTAVYYCAADIVSSPSSYVPPGDYWGQGTQVTVSS | low polyreactivity |
| QVQLVESGGGLDQAGGSLRLRCAASGRNFRWYTMVWYRQAPGKEREFVAAITWSDTSTSYADSVKGRFTISRDNAKNTVYLQMNSLIPEYTAVYYCNAGDKVSSYWYDYWGQGTQVNVSS | low polyreactivity |
| QVQLVESGGGLDQAGGSLRLSCAASGFIFDYYAMGWYRQAPGKERELVAAISWDGDSTNYADSVKGRFTISRDNAKNTVYLQMNSLKPEDTAVYYCNADEQLVDGWFFRYDYWGQGTQVTVSS | low polyreactivity |
